± gives the standard deviation.
Assay: protein stability index of a GFP-peptide fusion (GPS, HEK-293T) (PSI 1-6); higher = more stable
[1] = treatment: DMSO, c terminus: a fixed tail appended
[2] = treatment: MLN4924 1 uM, 8 h, c terminus: a fixed tail appended
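Note: 24-mer peptide tiles fused after GFP, lentivirally expressed, FACS-sorted into six equal bins by GFP/DsRed ratio, decoded by Illumina sequencing, PSI is the read-weighted mean bin number.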

| Sequence | protein stability index [1] | protein stability index [2] | protein stability index (treatment: DMSO, c terminus: native) | protein stability index (treatment: MLN4924 1 uM, 8 h, c terminus: native) |
| --- | --- | --- | --- | --- |
| TRILDGGNPFLDVPQALSATTYKH [PSD2] | 3.62 ± 0.17 | 3.73 ± 0.21 |  |  |
| KLEPMETERSPGPRLQELLGPSPQ [ZNF263] | 4.43 ± 0.14 | 4.52 ± 0.17 |  |  |
| QEKLQVLMAEGLLPAVKVFLDWLR [SMG5] | 2.5 ± 0.7 | 2.57 ± 0.54 |  |  |
| AFELLGKNTFEFLKENNFQPYPLP [CLK3] | 2.51 ± 0.33 | 2.65 ± 0.086 |  |  |
| HAGKKGKLSEHLRYCDSILREMLS [BRD3] | 2.16 ± 0.41 | 2.21 ± 0.3 |  |  |
| SFFYPVLFVLFMFFGMAFNFIVND [SOAT1] | 2 ± 0.2 | 1.96 ± 0.32 |  |  |
| EQKNHTFPRLNRNKYMVTDGAAYI [PLD5] | 2.85 ± 0.078 | 3.19 ± 0.24 |  |  |
| RNGQWSEPPKCLDPCVISQEIMEK [CFHR2] | 4.24 ± 0.063 | 4.07 ± 0.24 |  |  |
| RLRALGERHTMDLTVEGFQSWMWR [TMEM120A] | 2.38 ± 0.27 | 2.58 ± 0.49 |  |  |
| DSGTCPEVDEEGFTVRPDVTQNST [FCHO1] | 5.43 ± 0.28 | 5.4 ± 0.15 |  |  |
| CLHHICTNYNNVCRKFPRDMKAMS [RHOBTB2] | 2.26 ± 0.18 | 2.42 ± 0.067 |  |  |
| LQRWCRAKHMGLEPPPEVWQVLKT [POLD4] | 2.28 ± 0.056 | 2.56 ± 0.14 |  |  |
| AFCSSDEELEDSKALLYLPIAPEV [RBBP5] | 3.7 ± 0.21 | 3.66 ± 0.28 |  |  |
| RQLPPPPTPANEERRGGLPPLPLH [WAS] | 4.53 ± 0.22 | 4.52 ± 0.14 |  |  |
| NLLQDSSTSDSDLTCDSSTSSSDD [C18orf25] | 5.53 ± 0.3 | 5.61 ± 0.16 |  |  |
| ARLMRSNYPPPLSSAALRGAGPTR [C6orf223] | 3.79 ± 0.2 | 3.96 ± 0.14 |  |  |
| RGPSPVVLGSQDALPIATAFTEYV [FCHO1] | 3.14 ± 0.39 | 3.18 ± 0.3 |  |  |
| ALEALEPFWEVLVRSTETVERDNM [HDAC6] | 2.95 ± 0.23 | 3.12 ± 0.45 |  |  |
| GKLLLRLPSLRTVSSSVIEQLFFV [NR2F2] | 2.81 ± 0.6 | 2.83 ± 0.34 |  |  |
| LSSTLLSFSTAIGRTCITDLQLTV [MFSD9] | 3.11 ± 0.17 | 3.18 ± 0.39 |  |  |
| VVGALPAEHQFSFMEKRNQWLVSQ [TRAF3IP2] | 2.36 ± 0.24 | 2.65 ± 0.26 |  |  |
| APVLVAAPHSTFFDPIVLLPCDLP [LPCAT4] | 2.25 ± 0.27 | 2.47 ± 0.32 |  |  |
| SSDMMDSSSFSNLDLSEEDSDDPS [VDR] | 5.66 ± 0.25 | 5.63 ± 0.26 |  |  |

| Sequence | protein stability index [1] | protein stability index [2] | protein stability index (treatment: DMSO, c terminus: native) | protein stability index (treatment: MLN4924 1 uM, 8 h, c terminus: native) |
| --- | --- | --- | --- | --- |
| RAKFKRKYKVKLVEKRAFREIQL [NOP53] |  |  | 2.56 ± 0.36 | 2.79 ± 0.17 |
| ELVVIIGWAKHIPGFSTLSLADQM [ESRRG] | 3.19 ± 0.31 | 2.67 ± 0.77 |  |  |
| KKEDCLKLLLFLSTELQASQILQN [FAM98B] | 3.41 ± 1.1 |  |  |  |
| QKEGEFSTCFTELQRDFLKQRPTK [OAS1] | 4.26 ± 0.45 | 4.22 ± 0.3 |  |  |
| KYELMRPSNKAPLLVLCEDHRGRM [EHMT1] | 2.57 ± 0.28 | 2.78 ± 0.26 |  |  |
| EVYYAKKKRRAQQAPPQDSSNKKE [DYRK1B] | 4.45 ± 0.28 | 4.77 ± 0.24 |  |  |
| YQLADWCLHHICTNYNNVCRKFPR [RHOBTB2] | 2.25 ± 0.52 | 2.23 ± 0.14 |  |  |
| YQHFLQDCVDGLFKEVKEKFKGWV [DLC1] | 2.26 ± 0.49 | 2.02 ± 0.11 |  |  |
| HKTAGKRYVYRFVCDLQSLLGYTP [ETS1] | 3.08 ± 1 | 2.66 ± 0.57 |  |  |
| TFEVPEENTAETITRVLYEVFIEW [ZBED1] | 2.07 ± 0.4 | 2 ± 0.47 |  |  |
| DSGDSKDIRLTLMEEVLLLGLKDK [GOLPH3L] | 3.24 ± 0.19 | 3.25 ± 0.34 |  |  |
| AEPAPRAREGGGCGRSEVRPVAPR [SMAD6] | 4.35 ± 0.093 | 4.15 ± 0.4 |  |  |
| LAAGSAVFDAMFNGGMATTSAEIE [BTBD1] | 3.72 ± 0.35 | 3.75 ± 0.29 |  |  |
| LFVIRGQPADVFPRLFKEWNITKL [CRY1] | 2.18 ± 0.29 | 2.24 ± 0.32 |  |  |
| RAPPKRKRKRVKQRINTYVFVGNQ [PCMTD1] | 3.53 ± 0.15 | 3.41 ± 0.43 |  |  |
| NVQTEFPGEDENPEKASELSQVEL [TRIM55] | 5.48 ± 0.35 | 5.57 ± 0.3 |  |  |
| MCRLEELGLAGRCLTLTPRPATEA [HDAC6] | 2.21 ± 0.22 | 2.27 ± 0.095 |  |  |
| RDKILTATIENNRVILEIDNARLA [KRT13] | 2.69 ± 0.29 | 2.83 ± 0.33 |  |  |
| GFVMVPFEYRGEQHKTCMLNATSK [EDNRA] | 2.24 ± 0.43 | 2.75 ± 0.37 |  |  |
| SAGSPPELQGLPELHEECEGNHPS [NET1] | 5.46 ± 0.17 | 5.56 ± 0.16 |  |  |
| VNQDILENKESWDKILALVPETIH [PRIM1] | 3.16 ± 0.19 | 2.85 ± 0.32 |  |  |
| NRNLQKFSLFGDISVLQQQGSLSN [FBXO33] | 2.83 ± 0.28 | 2.86 ± 0.32 |  |  |
| LDASGEKMNGSHRDQGSSALSGVG [IKZF1] | 4.97 ± 0.51 | 5.05 ± 0.3 |  |  |

| Sequence | protein stability index [1] | protein stability index [2] | protein stability index (treatment: DMSO, c terminus: native) | protein stability index (treatment: MLN4924 1 uM, 8 h, c terminus: native) |
| --- | --- | --- | --- | --- |
| SLQRWEHLKKVASRYQNNIKNDKY [PRIM1] | 2.47 ± 0.25 | 2.91 ± 0.56 |  |  |
| AFHDGQRSRLRPRDDLDRLGVFLD [TRIM14] | 3.35 ± 0.26 | 3.66 ± 0.31 |  |  |
| LITKNHSQEETSILRCWKCRKCIA [RNF180] | 2.48 ± 0.44 | 2.98 ± 0.58 |  |  |
| LDFLHSANFSLGSINQRLNKRERS [RNF180] | 3.69 ± 0.24 | 3.86 ± 0.4 |  |  |
| GQVAEDRFPESHLPIQTPGAFLRT [TLE6] | 3.53 ± 0.48 | 3.99 ± 0.38 |  |  |
| PMENLEKQLICPICLEMFTKPVVI [TRIM63] | 2.43 ± 0.089 | 2.38 ± 0.36 |  |  |
| WTHDGIDINNNFPDLNTLLWEAED [CPXM2] | 3.44 ± 0.098 | 3.8 ± 0.45 |  |  |
| SPDSPKGSSETETEPPVALAPGPA [ESRRA] | 5.56 ± 0.31 | 5.63 ± 0.12 |  |  |
| EQIKTRTEELIVQTKQVYDAVGML [NLN] | 3.68 ± 0.25 | 3.88 ± 0.41 |  |  |
| SWAKSIPGFSSLSLSDQMSVLQSV [ESRRA] | 2.5 ± 0.32 | 2.66 ± 0.17 |  |  |
| SEEALRADGFGDNPFYHCLVAEIL [SAT2] | 3.08 ± 0.24 | 3.26 ± 0.25 |  |  |
| REEEDRALPENEFKKQIWLLFEYP [KCNA4] | 2.7 ± 0.19 | 2.94 ± 0.46 |  |  |
| SPEARDARSPSGPSGSLENGTKAD [TRIM29] | 5.36 ± 0.44 | 5.61 ± 0.18 |  |  |
| GYNDYTINVWDVLKGSRVSILFGH [GNB5] | 2.28 ± 0.39 | 2.3 ± 0.37 |  |  |
| MIGLYEPELGSGAGPAGTGTPSLL [EMID1] | 3.89 ± 0.53 | 3.65 ± 0.71 |  |  |
| MVATANNRQTFVNSAIRFLRKYSF [CHIT1] | 2.65 ± 0.19 | 2.63 ± 0.14 |  |  |
| EVKSSIAGSSTWERYFIPVSCFLT [SLC29A1] | 2.44 ± 0.37 | 2.34 ± 0.36 |  |  |
| QNLLKELQDLALQGAKERAHQQKK [CHGA] | 4.75 ± 0.23 | 4.52 ± 0.14 |  |  |
| LGHSPVLRNITNSQAPDGRRKSEA [CDC25B] | 3.77 ± 0.4 | 4.22 ± 0.48 |  |  |
| FQRAMHDYNQAEMKQRDNCKIRIQ [STX11] | 3.08 ± 0.33 | 3.44 ± 0.37 |  |  |
| SFVYVNPEDGRIFAQRTFDYELLQ [PCDHGC5] | 2.2 ± 0.26 | 2.56 ± 0.28 |  |  |
| EFMKDRLYFATLRNRPKSTVNTHY [CDC14A] | 2.11 ± 0.23 | 2.17 ± 0.59 |  |  |
| QGEYPPGTSTWQFNFKFNLTEDMY [CNOT7] | 1.9 ± 0.42 | 2.15 ± 0.46 |  |  |

| Sequence | protein stability index [1] | protein stability index [2] | protein stability index (treatment: DMSO, c terminus: native) | protein stability index (treatment: MLN4924 1 uM, 8 h, c terminus: native) |
| --- | --- | --- | --- | --- |
| SLEISPQNVDVNVHPTKHEVHFLH [MLH1] | 3.46 ± 0.23 | 3.63 ± 0.32 |  |  |
| EAVPEGPDGGGPWLEDEPGRGAQG [ZSWIM9] | 5.45 ± 0.52 | 5.56 ± 0.35 |  |  |
| AVLGRYVPGLLLSYLMLVTVMMWP [RETREG3] | 3.41 ± 0.13 | 3.1 ± 0.47 |  |  |
| TYRRLLEDGEDFNLGDALDSSNSM [KRT18] | 4.29 ± 0.14 | 4.52 ± 0.21 |  |  |
| AKYEYMEEQVILTEKDLLEDGFGE [SAT1] | 4.02 ± 0.4 | 4.06 ± 0.37 |  |  |
| ENPVGTFHCSMSPGNLEKNRYGDV [PTPN9] | 3.44 ± 0.35 | 3.4 ± 0.38 |  |  |
| ANRPDPNTPMEETVRAMTHVINQG [KCNAB2] | 4.75 ± 0.13 | 4.78 ± 0.12 |  |  |
| PSIIPQEDPSQQFLQQSLERVYSL [INTS4] | 3.58 ± 0.17 | 3.58 ± 0.28 |  |  |
| GLGLEDADWTQGLPWRFEELLTCS [TEX19] | 2.42 ± 0.47 | 2.76 ± 0.62 |  |  |
| FNFVSTPKCSCGQLAAVHLSKSRT [RNF180] | 2.14 ± 0.43 | 2.05 ± 0.26 |  |  |
| IIKKVAEVALDKGCSQFRLAVLDW [SAT2] | 2.77 ± 0.4 | 2.82 ± 0.6 |  |  |
| KALSRKSTSFRVYIMAFDIKSEDM [FBXO33] | 2.74 ± 0.54 | 2.6 ± 0.55 |  |  |
| ELHRRLDEEQQVLLSRLEEEEQDI [TRIM39] | 5.426 ± 0.033 | 5.49 ± 0.17 |  |  |
| ESSNDFGPYEGGGPVAGLDDSGGP [ZBTB22] | 5.03 ± 0.42 | 5 ± 0.13 |  |  |
| LEFAYYFRPGHLLANACLPVRTTN [ZSWIM9] | 2.47 ± 0.67 | 2.25 ± 0.28 |  |  |
| TDDQLLALLPSLSHCSQLTTLSFY [PRAME] | 2.26 ± 0.37 | 2.05 ± 0.3 |  |  |
| SLQSTGKCLLYCNGVLEPLYLCPN [SLC25A39] | 2.03 ± 0.34 | 2.21 ± 0.5 |  |  |
| DFSMAEALNQEFLATRSNEKQELQ [PRPH] | 5.05 ± 0.19 | 4.95 ± 0.27 |  |  |
| LAPPPLPLPAAAVVHVSFPEVTSA [ZBTB22] | 3.3 ± 0.3 | 3.73 ± 0.55 |  |  |
| NTEVPARNLYAYIQKLTQIETGEN [PTPRD] | 3.39 ± 0.22 | 3.37 ± 0.37 |  |  |

Source: the supplement of paper PMC10567573
